Results from paper PMC7911073, “Overproduction of Human Zip (SLC39) Zinc Transporters in Saccharomyces cerevisiae for Biophysical Characterization” (Cells, 2021).

Experiments:
[1] = molecular target: the molecule itself; assay: SDS-PAGE with Coomassie staining of SEC-pure samples (monomer and dimer bands); fractions of the main SEC peak in DDM + CHS
[2] = molecular target: the molecule itself; assay: SDS-PAGE with Coomassie staining and immunoblot by the tag (monomer and dimer bands); affinity-pure fractions (IMAC or StrepII-tag affinity) of N-terminal hZIP1 fusions solubilized in 2% DDM + 0.2% CHS; blot with 6xHis mAb-HRP or Strep-Tactin HRP
[3] = molecular target: the molecule itself; assay: SDS-PAGE with Coomassie staining and in-gel GFP fluorescence (monomer and dimer bands); IMAC eluate of hZIP1-TEV-GFP-His solubilized in 2% DDM + 0.68% CHS

B1: StrepII-TEV-hZIP1 (natural protein, human, UniProt Q9NY26 1-324, looked up)
chain: MGPWGEPELLVWRPEAVASEPPVPVGLEVKLGALVLLLVLTLLCSLVPICVLRRPGANHEGSASRQKALSLVSCFAGGVFLATCLLDLLPDYLAAIDEALAALHVTLQFPLQEFILAMGFFLVLVMEQITLAYKEQSGPSPLEETRALLGTVNGGPQHWHDGPGVPQASGAPATPSALRACVLVFSLALHSVFEGLAVGLQRDRARAMELCLALLLHKGILAVSLSLRLLQSHLRAQVVAGCGILFSCMTPLGIGLGAALAESAGPLHQLAQSVLEGMAAGTFLYITFLEILPQELASSEQRILKVILLLAGFALLTGLLFIQI
notes: human ZIP1 (hZIP1), full-length, codon-optimized cDNA; UniProt Q9NY26; A TEV protease site stands between the StrepII tag and hZIP1; not cleaved here; Predicted MW 36.5 kDa; also called N-terminal hZIP1 fusion; not shown: StrepII, N-terminal, kept
[1]
  binding result: binds

B2: His-TEV-hZIP1 (natural protein, human, UniProt Q9NY26 1-324, looked up)
chain: B1 chain
notes: human ZIP1 (hZIP1), full-length, codon-optimized cDNA; UniProt Q9NY26; A TEV protease site stands between the His8 tag and hZIP1; also called N-terminal hZIP1 fusion; source: S. cerevisiae PAP1500, purified from crude membranes solubilized in 2% DDM + 0.2% CHS (IMAC); not shown: His8, N-terminal, kept
[2]
  binding result: binds

B3: hZIP1-TEV-GFP-His (natural protein, human, UniProt Q9NY26 1-324, looked up)
chain: B1 chain
notes: human ZIP1 (hZIP1), full-length, codon-optimized cDNA synthesized by GenScript; UniProt Q9NY26; A TEV protease site (ENLYFQ↓SQF) stands between hZIP1 and GFP-His8; the fusion could not be cleaved by TEV protease; Predicted MW 63.3 kDa; also called hZIP1 C-terminally fused to TEV-GFP-His-tag; SLC39 family member; source: S. cerevisiae PAP1500, in whole-cell lysate; also purified from crude …
[3]
  binding result: binds
